In the nanobody polyreactivity screen of Harvey et al. (2022):

Assay: yeast display, Sf9 membrane polyspecificity reagent, FACS + sequencing; frameworks hold sequencing errors
Method in brief: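 A synthetic nanobody library was expressed on Saccharomyces cerevisiae BJ5465 by galactose induction for 36–48 hours. The library was stained for 1 hour at 4 °C with 10% biotinylated, detergent-solubilized Sf9 membrane reagent and enriched with streptavidin microbeads before FACS. Low and high (top ~1%) gates were set on anti-HA fluorescence for expression and streptavidin fluorescence for reagent binding, and each polyreactivity label reflects the gate of origin.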

Which “polyreactivity (PSR sort gate)” value does the source give for “QVQLVESGGGLAQAGGSLRLSCAASGSTFNSNAMGWSRQAPGKERELVAAISRSGGRTYYADSVKGRFTISRDIAKNTVYLQMNSLKPEDTAVYYCAAGCQYISRRGYDYWGQGTQVTVSS” here?
The value was “high polyreactivity”.

With “QVQLVESGGGLVQAGGSLRLSCADSGSTFKYYAMGWYRQAPGKEREFVASINWSGVSTYYADSVKGRFTISRDNPKNTVYLQMNSLKPEDTSVYYCAARVRGKYDYWGQGTQVTVSS” as the sequence, how does the “polyreactivity (PSR sort gate)” value read?
The value was “high polyreactivity”.

Which “polyreactivity (PSR sort gate)” value does the source give for “QVQLVESGGGLVQAGRSLRLSCAASGFIFSGNVMGWYRQAPGKERELVAAITSSGGSTYYADSVKGRFTISRDNAKNTVYLQMNSLKPEDTAVYYCATRYGGRYYWGQGTQVTVSS” here?
The value was “high polyreactivity”.

With “QVQLVESGGGLVQAGGSLRLSCAASGSTFDLYAMGWYRQAPGKERELVAAISSSGGRTYYADAVKGRFTISRDNAKNTVYLQMNSLKPEDTAVYDCAAVGYKYSRYDYWGQGTQVTVSS” as the sequence, how does the “polyreactivity (PSR sort gate)” value read?
The value was “high polyreactivity”.

With “QVQLEESGGGLVQAGGSLRLSCAASGSILPDYVMGWYRQAPGKERELVAAISWSDGSTYYADSVKGRFTISRDNAKNTVYLQRNSLKPEDTAVYYCAAEVWDYYYGCYADDYWGQGTQVTVSS” as the sequence, how does the “polyreactivity (PSR sort gate)” value read?
The value was “low polyreactivity”.

Which “polyreactivity (PSR sort gate)” value does the source give for “QVQLVESGGGLVQAGGSLRLSCAASGGNFSPNAMGWYRQAPGKERELVAAISSNGGSTNYADSVKGRFTISRDNAKNTVYLKMNSLKPEDTAVYYCAGLQKRRSYWRPFYWGQGTQVTVSS” here?
Its value is “low polyreactivity”.

For “QVQLVESGGGLVQAGGSLRLSCAASGSTYRYYAMGWYRQAHGKERELVAAINSSCGSTYYADSVKGRFTISRDNAKNTVYLQMNSLKPEDTAVYYCATVYAYTGWLTNPREYSRYDYWGQGTQVTVSS”, which “polyreactivity (PSR sort gate)” value is on record?
Its value is “low polyreactivity”.

For “QVQLVESGGGLVHAGGSLRLSCDASGSIFDGYGMGWYRQAPGKERELVASITWNDGSTYYADSVKGRFTISRDNAKNTVYLQMNSLKPEDTAVYYCAADQWGYEYDYWGQGTQVTVSS”, which “polyreactivity (PSR sort gate)” value is on record?
Its value is “low polyreactivity”.

For “QVQLVESGGGLVQAGGSLRLSCAASGRIFGGYAMGWYRQAPGKERELVAAISNGGRTNYADSVKGRFTISRDNAKNTVYLQMISLKPEDTAVYYCAARNYKPYGYYRIYDSWGQGTQVTVSS”, which “polyreactivity (PSR sort gate)” value is on record?
The value was “high polyreactivity”.

Which “polyreactivity (PSR sort gate)” value does the source give for “QVQLVESGGGLVQAGGSLRISCAASGFIFVTYAMGWYRQAPGKERELVAAITNSGGTTYYADSVKGRFTISRDNAKNTVYLQMNSLKPEDTAVYYCNKPYGAETAHREFDYWGQGTQVTVSS” here?
The value was “low polyreactivity”.

With “QVHLVESGGGLVQAGGSLRLSCAASGSTFRKYAMGWYRKAPGKERELDAAITSSGGRTYYADSVKGRFTISRDNAKNSVYLPLNSLKPEDTAVYYCAAGGPRFYSWRSEYDYWGQGTQVTVLS” as the sequence, how does the “polyreactivity (PSR sort gate)” value read?
The value was “high polyreactivity”.

For “QVQLVESWAGLVQAGGSLRLSCAASGRTFAYNAMGGYRQAPGSERELVAAITWSGDSTYYADSVKGRFTISRDNAKKTVYLQMNSQKPEDTAVNYCAAGLVFHYYAPKSYYLGYDYWGQGTQVTVSS”, which “polyreactivity (PSR sort gate)” value is on record?
The value was “low polyreactivity”.

With “QVQLVESGGGLVQAGGSLRLSCAASGFTCYNYAMGWYRQAPGKERELVAAITSSGTSTYYADSVKGRFTISRDNAKNTVYLQMNSLKPEDTAVYYCATYVAYHRGYSTYDHWGQGSQVTVSS” as the sequence, how does the “polyreactivity (PSR sort gate)” value read?
The value was “low polyreactivity”.

Which “polyreactivity (PSR sort gate)” value does the source give for “QVQLVESGGGLVQAGGSLRLSCAASGITFYINAMGWYRQAPAKERELVAVIDSRGSSTFYADSVKGRFTISRDNAKNTVYLLMNSLKPEDTAVYYCAVEGYPGRYRDPGDLYYYWGQGTQVTLSS” here?
The value was “low polyreactivity”.

Which “polyreactivity (PSR sort gate)” value does the source give for “QVQLVESVGGLVQAGASLRLTCAASGSIFWYAMGWYRQAPRQERELVAGISRGGSTYYADSVKGRFTISRDNAKNTVYLQMNSLKPEDTAVYYCNTAGYYGTPSNYWGQGTQVTVSS” here?
Its value is “low polyreactivity”.

Which “polyreactivity (PSR sort gate)” value does the source give for “QDQLVESGGGLVQAGGSLRLSCAASGLIFVSYAMGWYRQAPGKERELVASITDSDSSTYYADSVKGRFTISRDNAKNTVYLQMNSLKPEDTAVYYCATGGRTEIWYPTLDYWGQGTQVTVSS” here?
The value was “low polyreactivity”.

Which “polyreactivity (PSR sort gate)” value does the source give for “QVQLVESGGGLVQAGGSLRLSCAASGGLFKVYGMRLYRQAPGQERELVAAISWTTGGTYYADSVKGRFTISRDNAKNTVYLQMNSLKPEDTAVYYCNAPTWYYSGVRYDYWGQGTQVTVSS” here?
The value was “high polyreactivity”.

For “QVQLVESGGGLVQAGGSLRLSCAASGFTFRYNAMGWYRQAPGKERELVAAISRSGGRTYYADSVKGRFTISRDNAKNTVYLQMNSLKPEDTAVYYCAAVAARITGYGYWGQGTQVTVSS”, which “polyreactivity (PSR sort gate)” value is on record?
The value was “high polyreactivity”.

For “QVQLVESGGGLVQAGGSLRLSCAASGSTFAVYAMGWYRQAPGKERELVAVISRGANTNYADSVKGRFTISRDNAKNTVYLQMNSLKPEDTAVYYCAAVDGYDSHDTGEYYYWGQGTQVSVSS”, which “polyreactivity (PSR sort gate)” value is on record?
The value was “low polyreactivity”.

For “QVQLVESGGGLVQAGGSLRLSCAASGRTFNWYAMGWYRQTPGKERELVAGITRIGTTTYYADSVKGRFTISRDNAKITVYLQMNSLKPEDTAVYYCASDQRKLGADFDSWGQGTQVTVSS”, which “polyreactivity (PSR sort gate)” value is on record?
The value was “high polyreactivity”.

With “QVQLVESGGGLVQAGGSLRLSCAASGYIFGPNAMGWYRQAPGKERELVAAISSRGDSTFYADSVKGRFTISRDNAKNTDYLQMNSLKPEDTAVYYCAAEEITQFYVGSYLDDYWGQGTQVTVSS” as the sequence, how does the “polyreactivity (PSR sort gate)” value read?
Its value is “low polyreactivity”.

With “QVQLVESGGGLVQAGGSLRLSCAASGNIFSYNAMAWYRQAPGKERELVAAITTSSGRTYYADSVKGRFTISRDIAKNTVYLQMNSLKPEVTAVYYCNAVQRYQMGYWGQGTQVTVSS” as the sequence, how does the “polyreactivity (PSR sort gate)” value read?
The value was “high polyreactivity”.

For “QVQLVESGGDLVQAGASLRLSCASSGRTFRHNALGRYRQAPGKERYLVATISNRGGTTYYADSVKGRFTISRDNAKNTVYLQMNSLKPEDTAVYYCAARVGVLGYVRYGYWGQGTQVTVSS”, which “polyreactivity (PSR sort gate)” value is on record?
The value was “low polyreactivity”.

For “QVQLVESGGGLVQAGGSLRLSCSASGSTFSENAMGWYRQAPGKERELVAAISWGGGSTYYADSVKGRFTISRDKAKNTVYLQMNSLKPEDTSVYYCNADVFDDYCDFESDDWGQGTQVTVSS”, which “polyreactivity (PSR sort gate)” value is on record?
Its value is “low polyreactivity”.

Which “polyreactivity (PSR sort gate)” value does the source give for “QVQLVESGGGLVQAGGSLRLSCAASGNNFGVYAMGWYRQAPGTERELVAAIRYSTVSTYYADSVKGRFTISRDNAKNTVYLQMNSLKPEDTSVYYCAAQRRRYLPGHYYYWGQGTQVTVSS” here?
Its value is “high polyreactivity”.

Which “polyreactivity (PSR sort gate)” value does the source give for “QVQHVESGRGLVQAGGSLRLSCAASGLTFSRYAMGWYRQAPGKERELVAAITRSGGSTYYADSVKGRFTISRDNEKNTVYLQMKSLKPEDSAVYYCARTFTDRYGHWYGYWGQGTQVTVSS” here?
The value was “high polyreactivity”.

For “QVQLVESGGGLVQAGGSLRLSCAASGFTIGNYAMGWYRQAPGKERELVAAISSSGTSTYYADSVKGRFTISRDIAKNTVYLQMNSLKPEDTAVYYCAAEYIINYTIFEYWGQGTQLTVSS”, which “polyreactivity (PSR sort gate)” value is on record?
The value was “high polyreactivity”.

With “QVQLVESGGGLVQAGGILRLSCAASGFIFTANDMGWYIQAPGKVRELVAAISSGGRTYYADSVKGRFTISRDNAKNSVYFQKNSLKPEDTAVYYCARDLYVRNGQRARYDSWGQGTQVTVSS” as the sequence, how does the “polyreactivity (PSR sort gate)” value read?
Its value is “high polyreactivity”.

For “QVQLVESGGGLVQAGGSLRLSCAASGSTFRYNTMGWYRQAPGKEREFVAAISQSGGSTYYADSVKGRFTISRDNAKNTVYLQMNSLKPEDTAVYYCNARPFYATYRYRGYSWGQGTQVTVSS”, which “polyreactivity (PSR sort gate)” value is on record?
The value was “high polyreactivity”.

Which “polyreactivity (PSR sort gate)” value does the source give for “QVQLEDSGGGLVQAGGSLRLSCAASGFIFRYYAMGWYRKATGKERELVAAIDYSGGSTNYADSVKGRFTISRDNAKNTVYLQMNSLKPEDTAVYYCKAVHETTWQLYDYWGQGTQVTVSS” here?
Its value is “low polyreactivity”.

Which “polyreactivity (PSR sort gate)” value does the source give for “QVQLVESGGGLVQAGGSLRLSCAASGLIFYRNAMGWYRQAPGKERELVAAIRFSTGSTYYADSVKGRFTISRDNAKNTVYLQMNSLKPEDTAVYYCAADRRYYWYNYWGQGTQVNVSS” here?
Its value is “high polyreactivity”.
